Residue numbers refer to the chain shown, from its start.
B1: SEQ ID NO 66 (designed binder)
chain: MGSWEEFDKRLDAITRRLMALGGSEAELAEFESTIAWFEWDLQEYKGKGNPEVEALDWEAYAIDYELGAYRHN
B2: SEQ ID NO 67 (designed binder)
chain: MGSWSEFVDRLDAIFDRLWALGGSEAELAWFEDTIAHFEWNLQEYKGKGNPEVEALNGEADAITDELHAYRHN
B3: SEQ ID NO 68 (designed binder)
chain: MGSWWEFTDRLDAIFDRLWALGGSEAELAAFEESIAIFEQDLQYYKGKGNPEVEALEYEANAIQYELEAYRHN
B4: SEQ ID NO 69 (designed binder)
chain: MGSWWEFTDRLEAIEDRLWALGGSEAELAHFEDSIAQFEQELQWYKGKGNPEVEALADEADAIESELHAYRHN
B5: SEQ ID NO 70 (designed binder)
chain: MGSWEWFKSDLASIKWELEALGGSEAELAWFEHDIAEFEEDLQWYKGKGNPEVEALRKEAAAIRDELQAYRHN
B6: SEQ ID NO 71 (designed binder)
chain: MGSWDHFKNDLAWIKKHLEALGGSEAELAEFEAVIAYFELYLQGYKGKGNPEVEALRKEAAAIRDELQAYRHN
B7: SEQ ID NO 72 (designed binder)
chain: MGSWEFFKEVLAEIKYDLEALGGSEAELAWFETDIAGFEIDLQVYKGKGNPEVEALRKEAAAIRDELQAYRHN
B8: SEQ ID NO 73 (designed binder)
chain: MGSWYDFKEDLADIKWMLEALGGSEAELAEFENVIAYFENDLQEYKGKGNPEVEALRKEAAAIRDELQAYRHN
B9: SEQ ID NO 74 (designed binder)
chain: MGSWSFFKDDLAEIKYFLEALGGSEAELAMFEQTIAEFEYDLQDYKGKGNPEVEALRKEAAAIRDELQAYRHN
B10: SEQ ID NO 75 (designed binder)
chain: MGSWVTFKDELADIKDFLEALGGSEAELAFFEVDIAEFEAELQFYKGKGNPEVEALRKEAAAIRDELQAYRHN
B11: SEQ ID NO 76 (designed binder)
chain: B5 chain with E5S, S9E, S13D, W16F, H33L, E37D, E40Q, D41A, W44Q
B12: SEQ ID NO 77 (designed binder)
chain: B5 chain with E5W, W6E, S9E, S13E, E17F, E37K, E40F, D41E, W44Y
B13: SEQ ID NO 78 (designed binder)
chain: MGSWDEFKEDLAHIKTDLEALGGSEAELALFEDEIADFEMYLQHYKGKGNPEVEALRKEAAAIRDELQAYRHN
B14: SEQ ID NO 79 (designed binder)
chain: MGSWFMFKEELADIKDWLEALGGSEAELASFESYIAWFEQDLQWYKGKGNPEVEALRKEAAAIRDELQAYRHN
B15: SEQ ID NO 80 (designed binder)
chain: MGSWQIFKGELAYIKQYLEALGGSEAELAFFEFDIAEFEEDLQYYKGKGNPEVEALRKEAAAIRDELQAYRHN
B16: SEQ ID NO 81 (designed binder)
chain: MGSWYIFKEDLAEIKEELEALGGSEAELAYFEEEIALFEMELQWYKGKGNPEVEALRKEAAAIRDELQAYRHN
B17: SEQ ID NO 82 (designed binder)
chain: MGSWYYFKDELADIKWDLEALGGSEAELAWFEMLIAQFELDLQWYKGKGNPEVEALRKEAAAIRDELQAYRHN
B18: SEQ ID NO 83 (designed binder)
chain: MGSWFNFKEELAVIKFQLEALGGSEAELAFFEWVIADFEDDLQEYKGKGNPEVEALRKEAAAIRDELQAYRHN
B19: SEQ ID NO 84 (designed binder)
chain: B17 chain with Y6M, D9E, D17Y, M33D, L34D, Q37G, L40W, W44A
B20: SEQ ID NO 85 (designed binder)
chain: MGSWHVFKTELADIKFYLEALGGSEAELAMFELWIAEFEHELQDYKGKGNPEVEALRKEAAAIRDELQAYRHN
B21: SEQ ID NO 86 (designed binder)
chain: B10 chain with V5Y, T6V, D13E, D16Q, F30W, V33D, A40T, E41Q, F44H
B22: SEQ ID NO 87 (designed binder)
chain: MGSWTEFKGELAEIKWILEALGGSEAELAFFEDEIAAFEWDLQKYKGKGNPEVEALRKEAAAIRDELQAYRHN
B23: SEQ ID NO 88 (designed binder)
chain: MGSWFWFKEDLAFIKEDLEALGGSEAELAWFEDGIAFFEWDLQDYKGKGNPEVEALRKEAAAIRDELQAYRHN
B24: SEQ ID NO 89 (designed binder)
chain: B5 chain with E5S, S9E, W16A, E17V, W30F, H33S, E40Q, D41E, W44Y
B25: SEQ ID NO 90 (designed binder)
chain: MGSWILFKDDLAWIKETLEALGGSEAELAFFEDNIADFEEQLQGYKGKGNPEVEALRKEAAAIRDELQAYRHN
B26: SEQ ID NO 91 (designed binder)
chain: B25 chain with I5Q, L6W, W13Y, F30L, N34M, E40F, Q41E, G44W
B27: SEQ ID NO 92 (designed binder)
chain: MGSWEEFHSRLDAIDDRLWALGGSEAELAAFEKEIAAFESELQAYKGKGNPEVEWLRWEAATIRETLQAYRHN
B28: SEQ ID NO 93 (designed binder)
chain: MGSWSEFWQRLEAIEDRLWALGGSEAELAAFEKEIAAFESELQAYKGKGNPEVEWLRENAAMIRDELQAYRHN
B29: SEQ ID NO 96 (designed binder)
chain: MGSWIEFNMRLDAIYERLVALGGSEAELAAFEKEIAAFESELQAYKGKGNPEVEWLRKVAANIRLELQAYRHN
B30: SEQ ID NO 94 (designed binder)
chain: B29 chain with I5T, N8A, M9W, E16D, V19L, K58H, L65R
B31: SEQ ID NO 97 (designed binder)
chain: B29 chain with I5S, V19T, K58H, V59S, N62R
B32: SEQ ID NO 98 (designed binder)
chain: B29 chain with I5V, M9I, V19Y, W55K, K58H, V59W, N62S, L65R
B33: SEQ ID NO 103 (designed binder)
chain: B29 chain with N8E, M9V, E16N, V19A, W55R, K58R, V59Y, L65H
B34: SEQ ID NO 105 (designed binder)
chain: B29 chain with I5Y, N8H, M9H, V19L, K58S, V59S, L65K
B35: SEQ ID NO 123 (designed binder)
chain: B29 chain with I5T, M9L, E16D, V19M, K58A, V59S, N62A, L65V
B36: SEQ ID NO 124 (designed binder)
chain: B29 chain with I5S, N8Y, M9L, E16D, V19D, V59T, L65E
B37: SEQ ID NO 125 (designed binder)
chain: B29 chain with I5S, N8H, M9V, E16A, V19D, W55R, K58E, V59W, L65R
B38: SEQ ID NO 95 (designed binder)
chain: MGSWDEFYYRLEAIEMRLGALGGSEAELAAFEKEIAAFESELQAYKGKGNPEVEELRHYAAQIRHMLQAYRHN
B39: SEQ ID NO 99 (designed binder)
chain: MGSWDEFGRRLYAIEWRLYALGGSEAELAAFEKEIAAFESELQAYKGKGNPEVEKLREIAAVIRSNLQAYRHN
notes: also called cg06
B40: SEQ ID NO 100 (designed binder)
chain: B28 chain with S5I, W8Y, Q9D, E15Y, W19D, N59D, M62F, D65S, E66W
B41: SEQ ID NO 110 (designed binder)
chain: B28 chain with S5Y, W8E, Q9Y, W55Y, N59E, M62W, D65V, E66W
B42: SEQ ID NO 104 (designed binder)
chain: B27 chain with E5T, S9D, D12E, W55Y, W58E, T62Q, E65W, T66E
B43: SEQ ID NO 111 (designed binder)
chain: B28 chain with S5V, W8E, Q9N, D16N, N59D, M62Q, D65M, E66M
B44: SEQ ID NO 112 (designed binder)
chain: B27 chain with E5Y, H8W, S9D, D12E, W55A, W58Q, T62W, T66E
B45: SEQ ID NO 115 (designed binder)
chain: B28 chain with S5W, W8E, Q9M, W19F, W55S, E58W, N59E, M62F, E66I

Target: T1, CD123 (target of Example 19) (Homo sapiens (Human), UniProt P26951 19-305, limits assumed)
T1 sequence: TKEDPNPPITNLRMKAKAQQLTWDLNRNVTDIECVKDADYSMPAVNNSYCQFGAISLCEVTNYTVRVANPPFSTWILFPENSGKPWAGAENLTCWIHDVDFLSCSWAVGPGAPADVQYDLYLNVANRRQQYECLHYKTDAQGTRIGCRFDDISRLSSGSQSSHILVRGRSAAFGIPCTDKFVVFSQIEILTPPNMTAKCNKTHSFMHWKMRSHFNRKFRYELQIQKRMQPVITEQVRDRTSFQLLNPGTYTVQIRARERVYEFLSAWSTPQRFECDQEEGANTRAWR
Assay: library selection; assay not described

Binding result, binds:
B1
B2
B3
B4
B5
B6
B7
B8
B9
B10
B11
B12
B13
B14
B15
B16
B17
B18
B19
B20
B21
B22
B23
B24
B25
B26
B27
B28
B29
B30
B31
B32
B33
B34
B35
B36
B37
B38
B39
B40
B41
B42
B43
B44
B45
